Assay results from the supplement of paper PMC12042874.
± gives the uncertainty stated by the source.

Test: amyloid nucleation score (Sup35N fusion, yeast selection) (log enrichment); library NNK2; higher = more nucleation; inactive = no reads after selection
Summary of the method: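 Plasmid inserts were Illumina-sequenced at input and output from psi-negative yeast expressing Sup35N fused to peptides of 20 random codons. The yeast were induced with 100 μM copper sulfate for 24 hours and grown 7 days at 30°C on medium lacking adenine and uracil, and sequences with under 100 input reads were excluded. Nucleation score is the DiMSum log enrichment of output over input reads, centred on the mode score of non-aggregating sequences.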

| Substance | amyloid nucleation score |
| --- | --- |
| WTVGRRELGCM | inactive |
| WTYGVTRLSSLCSAIDLSLG | -0.598 ± 1.1 |
| WVGAVKFFRSVKRQMSIYLE | inactive |
| WVGLHVR | 0.525 ± 0.36 |
| WVHGIESSRWRFGL | -0.474 ± 1.1 |
| WVTIALYCNKLIVTVRGGIG | -0.029 ± 1.1 |
| WVVRK | -1.76 ± 0.44 |
| WWFLKLDGRLPKLWAFLTMG | -0.22 ± 0.23 |
| WWNITTEAPIFLIFCFTRQG | 4.8 ± 0.068 |
| WWTVKLLMSEVVFRWELEYI | 5.735 ± 0.04 |
| WYCMNSGASMLCGLRQARFL | -0.715 ± 0.76 |
| WYCRVSMRNLYIFGSIRSAY | 5.34 ± 0.086 |
| WYKKATNSVLANVGQDFVVK | -0.41 ± 0.36 |
| WYKRVVFPMP | -0.442 ± 1 |
| YACFRPFSDTRRRCGFSTL | inactive |
| YADLISSWVILGWFQRKTLF | 0.228 ± 1 |
| YAFSMDRWVDLMLFQRV | 4.96 ± 0.092 |
| YAGYNISCP | inactive |
| YAIICKPLDDPLRKGTRWRR | 0.477 ± 0.4 |
| YALAAVSRFG | 0.22 ± 0.55 |
| YANERNTDFNNRWFLHGIKR | -1.34 ± 1.1 |
| YCCFMSRHGSKWHYVNICIF | inactive |
| YCGFQYLRWGVTVVNS | 0.386 ± 0.19 |
| YCILLLNVVVMCYMMCDGFA | 0.635 ± 0.65 |
| YCINGLGIGTELCVFTTKWM | -0.479 ± 0.3 |
| YCMLCQGWDGICLPEVSAVW | 0.146 ± 0.29 |

| Substance | amyloid nucleation score |
| --- | --- |
| YCNYVTRDSFAFMSSFFMSA | -1.55 ± 1.1 |
| YCPPFLHNTWAYAKRTGRGS | -0.137 ± 0.61 |
| YCYVSRVFYRMCALAGWMGL | inactive |
| YDANLRLYSYSRTQLFSSWS | 3.83 ± 0.088 |
| YDDHDFNRAGGLTVTNVWMV | 3.64 ± 0.1 |
| YDLCGTALTVLGTVIY | 1.15 ± 0.27 |
| YDLDEGYSLMFVPQEQICAE | inactive |
| YDNMC | -0.72 ± 0.35 |
| YDNSYNWTATTFFGSRPDQS | 4.55 ± 0.048 |
| YEGFM | -0.297 ± 0.56 |
| YEIRWFRGLIK | 0.495 ± 0.43 |
| YFDSEPCLHFPCLVEGFRGW | -0.54 ± 1.1 |
| YFFRVSYVEFVRCFGFSCRW | -0.846 ± 0.41 |
| YFIRRKIRMGGHLLTWSWWI | -0.104 ± 0.49 |
| YFNNPLFVEDFWLSYVSMSY | -0.749 ± 0.32 |
| YFPIASALNCSLGCARCCES | 0.669 ± 0.74 |
| YFRMNPKFVCTKYSNAEYLS | -0.427 ± 0.64 |
| YFRNDNGLWEINSCRILFIV | inactive |
| YFSSQLDLRRIMLLLSRYV | 0.721 ± 0.54 |
| YFVVL | -1.78 ± 0.62 |
| YFYITTCSGMSTDVFMNLLT | -0.422 ± 1 |
| YGAWRFGRLALSRRPSYCGM | -0.271 ± 0.27 |
| YGDYMFHPETAVSL | 4.49 ± 0.064 |
| YGFGRHKNGAAMPTMYFAMS | -0.014 ± 0.41 |
| YGFKGTSLR | -0.506 ± 0.28 |
| YGFSGMMNSFSFHGC | 6.07 ± 0.083 |

| Substance | amyloid nucleation score |
| --- | --- |
| YGKIL | -0.956 ± 1 |
| YGPWSCLI | inactive |
| YGQIITSEKNRRNYMCPFSG | -0.393 ± 1.1 |
| YGSESVGGSQRSGNLSWGTG | 0.257 ± 0.64 |
| YGSFIWWLPCNGMGLKCSRS | 1.67 ± 0.12 |
| YGSFWTFRFLGT | 4.12 ± 0.073 |
| YGTKQVGKNRFFEHSYYYWP | inactive |
| YGTWKVRKCGLSIFGVGGPD | -0.303 ± 0.63 |
| YGYCIISHTLNLLLGQYLCY | 4.99 ± 0.068 |
| YHCCFRSKAGFQESQDITIR | -0.18 ± 0.24 |
| YHFFKCRPCSFSWLITGMVK | -0.287 ± 0.63 |
| YHIWRYHATSSHTFARFSSV | 1.62 ± 0.51 |
| YHLSELVMRREWSDWYNVCG | 0.126 ± 0.43 |
| YHNWSA | 0.025 ± 0.23 |
| YHTRIYDL | 0.576 ± 0.45 |
| YIAILFYMC | 7.2 ± 0.044 |
| YICVFLDSYLGHMYRPHWRV | 1.91 ± 0.13 |
| YIGVIT | 5.38 ± 0.1 |
| YILSWARFIEYDYLTPRVYS | 0.356 ± 0.57 |
| YIRCYRNV | -0.536 ± 0.33 |
| YISMKWEVAHNYWWILSGIP | 0.444 ± 0.25 |
| YIVPSKRIWFFGLSSNGDST | 0.102 ± 0.41 |
| YIWILWIAMEQNKSWRGQHD | 4.44 ± 0.12 |
| YIWYCRMPTSSNTVSNL | inactive |
| YIYLNEKFCITYMRESWNCC | 0.651 ± 0.39 |
| YIYRNITRLQKSCSIIISGR | -1.88 ± 0.64 |

| Substance | amyloid nucleation score |
| --- | --- |
| YIYYNYKGLSVVFLSNSNMW | 2.88 ± 0.12 |
| YKAAIGFCINQCLRHHVTKR | inactive |
| YKDHGCNDSWK | -0.572 ± 0.44 |
| YKEVWY | -0.284 ± 0.45 |
| YKFRYWAYFFSDVAGVI | -1.75 ± 0.75 |
| YKLRSQ | -0.184 ± 0.27 |
| YLCGFNIVPHRYINFRVWTE | 4.39 ± 0.11 |
| YLGCRDPTRCFLLVHVPDLY | -0.127 ± 1 |
| YLGGMGSICDVNPCLYNRFL | 0.655 ± 0.16 |
| YLGLDARLI | 0.661 ± 0.8 |
| YLICD | -0.578 ± 0.76 |
| YLLALRCLFLLYRVYWFSIE | -0.129 ± 0.39 |
| YLLLLIMDLFKGRACHPRHA | inactive |
| YLLMTKCVTVAERMGIMISC | -0.95 ± 1 |
| YLQVWYTREFYIFRGKMDLL | inactive |
| YLRMDLVKWKWVGDGSQVC | 2.86 ± 0.08 |
| YLSGLIIS | -0.593 ± 1.1 |
| YLSGYRLRTVVAVDTGMWYV | 2.65 ± 0.13 |
| YLSRWYLKILQVSWRSVHSS | -0.712 ± 0.36 |
| YLTNNLVLWFDICDEERYWW | 5.45 ± 0.059 |
| YLVFKYTRGMFLVLCTPIWV | -1.17 ± 0.39 |
| YLWDTIYIDLSVLLVLATSW | 0.21 ± 0.54 |
| YLWPALPR | 0.142 ± 0.46 |
| YLWWMKSNY | inactive |
| YLYKCNM | inactive |
| YMCRVYMSNSINDFDLPHLL | 2.06 ± 0.29 |

| Substance | amyloid nucleation score |
| --- | --- |
| YMDMWGR | -0.81 ± 0.41 |
| YMFDFYFVLYESKYAWINPK | inactive |
| YMFYPNCRSRC | 0.59 ± 0.15 |
| YMIYCFITVGCFISTLHYCG | 1.68 ± 0.15 |
| YMLTIRFICFGAVGHSDMHE | 0.672 ± 0.18 |
| YMLWGWFFLNGFYTVIGIVP | inactive |
| YMRGITHSAGCSSLAINVEH | -1.23 ± 1.1 |
| YMSIHSKAGMVSLDLKCLCT | -0.427 ± 1 |
| YNGLMNISIATMC | -1.17 ± 0.74 |
| YNIIYWFLYKVQAWSVCSWG | 5.31 ± 0.077 |
| YNKGNACISGYYGCSLA | 7.41 ± 0.083 |
| YNKLGCTARFTRAMWTFCGV | 0.066 ± 1 |
| YNKRVSWKYWMWHEYAMRGW | 5.21 ± 0.057 |
| YNKWLMASLPRIVGT | -0.47 ± 1.1 |
| YNLFYELNLVLIP | 6.137 ± 0.05 |
| YNLNCHLFSAWTFNYKIAFL | 5.958 ± 0.043 |
| YNMMLSVWDSYVLLVECVME | -0.801 ± 0.31 |
| YNPNCPCICS | 6.823 ± 0.026 |
| YNQTVCDFLGKRLWGDVWRS | 0.26 ± 0.36 |
| YNVDDCSHRDRFIDNRDSEC | inactive |
| YNVDTVYLRGSLLRSYDWCF | -2.32 ± 1.1 |
| YNWHMSHFYDLGP | 4.99 ± 0.099 |
